Experimental data as given in patent US20240082414A1, “HUMAN TUMOR NECROSIS FACTOR ALPHA ANTIBODY GLUCOCORTICOID CONJUGATES” (Eli Lilly and Company, priority 2022, published 2024).

What was measured:
[1] = target: human FcγRI (CD64) extracellular domain (human) (UniProt P12314); assay: SPR (Biacore), antibody captured on Protein A, FcγR ECD as analyte, 25° C.
[2] = target: human FcγRIIA_131H (CD32a) extracellular domain (human) (UniProt P12318); assay: SPR (Biacore), antibody captured on Protein A, FcγR ECD as analyte, steady state, 25° C.
[3] = target: human FcγRIIA_131R (CD32a) extracellular domain (human) (UniProt P12318); assay: as above
[4] = target: human FcγRIIIA_158F (CD16a) extracellular domain (human) (UniProt P08637); assay: as above
[5] = target: human FcγRIIb (CD32b) extracellular domain (human) (UniProt P31994); assay: as above
Sequence of human FcγRIIb (CD32b) extracellular domain (human) (P31994 43-217): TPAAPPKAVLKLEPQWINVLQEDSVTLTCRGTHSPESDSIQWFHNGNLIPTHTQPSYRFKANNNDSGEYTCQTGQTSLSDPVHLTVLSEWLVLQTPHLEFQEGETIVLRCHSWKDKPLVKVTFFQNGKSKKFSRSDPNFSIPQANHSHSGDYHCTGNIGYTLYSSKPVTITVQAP

Sequence of human FcγRIIA_131H (CD32a) extracellular domain (human) (P12318 34-217): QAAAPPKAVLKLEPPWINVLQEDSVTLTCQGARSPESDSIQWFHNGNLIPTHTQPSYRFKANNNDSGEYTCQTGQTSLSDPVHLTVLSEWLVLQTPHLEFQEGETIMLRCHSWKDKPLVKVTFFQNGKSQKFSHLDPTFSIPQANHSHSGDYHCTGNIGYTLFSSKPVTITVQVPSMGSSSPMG
Sequence of human FcγRIIA_131R (CD32a) extracellular domain (human) (P12318 34-217 H167R limits assumed): as the sequence (P12318 34-217) above, with H134R counted along it
Sequence of human FcγRI (CD64) extracellular domain (human) (P12314 16-292): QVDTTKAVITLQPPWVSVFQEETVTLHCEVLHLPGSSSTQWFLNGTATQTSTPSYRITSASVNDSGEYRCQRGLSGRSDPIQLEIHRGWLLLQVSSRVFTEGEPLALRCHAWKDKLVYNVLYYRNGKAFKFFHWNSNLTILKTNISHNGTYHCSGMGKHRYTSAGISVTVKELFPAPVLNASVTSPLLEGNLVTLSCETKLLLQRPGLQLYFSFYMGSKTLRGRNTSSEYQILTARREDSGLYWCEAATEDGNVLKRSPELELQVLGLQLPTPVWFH
Sequence of human FcγRIIIA_158F (CD16a) extracellular domain (human) (P08637 17-208): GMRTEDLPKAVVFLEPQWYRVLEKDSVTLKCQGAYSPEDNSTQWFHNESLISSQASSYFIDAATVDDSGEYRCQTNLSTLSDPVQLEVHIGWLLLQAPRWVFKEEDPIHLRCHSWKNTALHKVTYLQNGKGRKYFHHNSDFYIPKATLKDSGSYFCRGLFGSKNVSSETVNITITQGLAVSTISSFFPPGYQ

Kd [1]: 0.0479 nM
Kd [2]: 570 nM
Kd [3]: 570 nM
Kd [4]: 820 nM
Kd [5]: 2810 nM
Substance: human IgG1 isotype control antibody
